Earlier results on one substance are cited in article PMC12073169.

A word on the pKd: it is the Kd on a negative log10 scale, so that one unit is a factor of ten.

pKd: −log10 of the molar value.

This data set concerns the target ATG3 (Homo sapiens) (UniProt Q9NT62).
UniProt Q9NT62, sequence (Q9NT62 whole entry): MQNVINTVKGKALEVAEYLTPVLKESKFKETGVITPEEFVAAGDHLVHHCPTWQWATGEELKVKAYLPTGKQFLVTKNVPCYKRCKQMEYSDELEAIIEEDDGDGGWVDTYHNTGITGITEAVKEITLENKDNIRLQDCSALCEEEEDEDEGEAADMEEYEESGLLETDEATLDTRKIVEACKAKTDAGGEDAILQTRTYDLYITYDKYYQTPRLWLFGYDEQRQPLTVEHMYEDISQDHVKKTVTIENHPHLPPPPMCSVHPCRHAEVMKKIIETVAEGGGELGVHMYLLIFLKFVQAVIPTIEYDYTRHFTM

Regarding ATG7 (from UniProt O95352), the pKd is 6.46.
